The results in this text go back to paper PMC11140114 (2024).

In the test the target is recombinant human dynamin-related protein 1 (Drp1), isoform 1 (human, UniProt O00429 1-736). Put plainly: BLI.
Sequence of recombinant human dynamin-related protein 1 (Drp1), isoform 1 (O00429 whole entry, canonical isoform): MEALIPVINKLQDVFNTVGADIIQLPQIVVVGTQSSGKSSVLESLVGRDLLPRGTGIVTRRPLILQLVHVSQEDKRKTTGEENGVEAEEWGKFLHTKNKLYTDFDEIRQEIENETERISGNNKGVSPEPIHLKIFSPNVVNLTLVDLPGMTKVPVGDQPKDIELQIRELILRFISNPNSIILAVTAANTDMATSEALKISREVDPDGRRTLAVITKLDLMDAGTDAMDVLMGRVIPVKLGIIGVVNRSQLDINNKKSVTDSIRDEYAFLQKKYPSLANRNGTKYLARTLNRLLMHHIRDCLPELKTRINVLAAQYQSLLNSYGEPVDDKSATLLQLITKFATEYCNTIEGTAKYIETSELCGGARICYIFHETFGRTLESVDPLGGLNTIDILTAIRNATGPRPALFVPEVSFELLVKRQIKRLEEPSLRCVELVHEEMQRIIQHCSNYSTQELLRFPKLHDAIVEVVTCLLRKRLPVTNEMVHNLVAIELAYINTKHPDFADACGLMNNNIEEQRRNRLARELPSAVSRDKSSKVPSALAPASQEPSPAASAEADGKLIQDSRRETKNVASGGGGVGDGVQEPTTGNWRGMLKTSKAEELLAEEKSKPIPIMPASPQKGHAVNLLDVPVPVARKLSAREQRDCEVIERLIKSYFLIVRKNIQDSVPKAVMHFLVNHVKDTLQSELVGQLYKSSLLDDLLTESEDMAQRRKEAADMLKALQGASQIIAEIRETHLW

B1: Drp1-specific nanobody D7 (VHH)
VHH: QVQLVESGGGLVQPGGSLRLSCVASGFDFSTYSMTWHRQVLGKERELVASITPGGSRTNVADSVKGRFTISRDNAKNMLYLQMDRLKPEDTGMYYCAQGGYYAEPDYWGKGTRVTVSS
modifications: biotinylated for BLI (site not stated); covalently immobilised on NHS-activated sepharose via primary amino groups of accessible lysines for the nanotrap
As usually defined, the koff is the first-order rate constant of dissociation. On to B1, for which the koff is 0.000117 s⁻¹.

B2: Drp1-specific nanobody D63 (VHH)
VHH: QVQLVESGGDLVQPGGSLKLSCAVSGVSDSLSSFYLMAWHRQAPGKQREMIADIVSGKATYADSVKGRFTISRDNAENTAYLQMNSLKPEDTAVYYCNVLIQNRSTFQSYWGQGTQVTVSS
modifications: biotinylated for BLI (site not stated); covalently immobilised on NHS-activated sepharose via primary amino groups of accessible lysines for the nanotrap
Consider B2, for which the off-rate (koff) worked out at 0.000227 s⁻¹.
